Reference: US20260028418A1 (GC CELL, published 2026)

Assays:
HER2-ECD-Fc [1] = target: T1, HER2-ECD-Fc (human, UniProt P04626 23-652); assay: ELISA on HER2-ECD-Fc; antibody at 5 × 10^-6 µg/mL
T1 construct: extracellular domain; Produced in FreeStyle 293F cells; also called HER2-ECD Fc fusion protein

HER2-ECD-Fc [2] = target: T1, HER2-ECD-Fc; assay: ELISA on HER2-ECD-Fc; antibody at 5 × 10^-4 µg/mL
HER2-ECD-Fc [3] = target: T1, HER2-ECD-Fc; assay: ELISA on HER2-ECD-Fc; antibody at 5 µg/mL
HER2-ECD-Fc [4] = target: T1, HER2-ECD-Fc; assay: ELISA on HER2-ECD-Fc; antibody at 5 × 10^-7 µg/mL
HER2-ECD-Fc [5] = target: T1, HER2-ECD-Fc; assay: ELISA on HER2-ECD-Fc; antibody at 5 × 10^-1 µg/mL
HER2-ECD-Fc [6] = target: T1, HER2-ECD-Fc; assay: ELISA on HER2-ECD-Fc; antibody at 5 × 10^-2 µg/mL
HER2-ECD DIII Fc = target: T2, HER2-ECD DIII Fc (human, UniProt P04626 342-510, limits assumed); assay: ELISA on plate-coated HER2 domain-Fc fusion (1 µg/mL), anti-human IgG-HRP, Abs 450 nm; antibody concentration not given
T2 construct: domain: domain 3; also called domain 3 of the extracellular domains of the HER2 protein; not shown: Hinge and Fc region (CH2-CH3) of human IgG1, at the C-terminus
Method: (§1) The HER2-ECD DI Fc, HER2-ECD DII Fc, HER2-ECD DIII Fc, HER2-ECD DIV Fc and HER2-ECD Fc fusion proteins were immobilized at 4° C. overnight onto a Costar 96-well plate (Corning, Cat. No. 3590) at a concentration of 1 μg/mL […]. The resultant was washed 3 times with TBS-T (0.05% Triton X-100) and then blocked at room temperature for 1 hour with 100 μL of TBS-T/BSA (5% BSA). After washing the blocked plate 3 times and adding the anti-HER2 antibody, the antibody was allowed to bind at room temperature for 1 hour. After washing 3 times and then adding anti-human IgG-HRP diluted to 1:3,000 in TBS-T/BSA, as a secondary antibody, the antibody was allowed to bind at room temperature for 1 hour. After washing the resultant 3 times and adding TMB (SurModics, Cat. No. TMBC-1000-01), the mixture was allowed to develop color at room temperature for 5 minutes. Then, the color development was stopped by adding 1 N sulfuric acid (DukSan, Cat. No. 254). Absorbance was measured at 450 nm using Victor X3 (PerkinElmer, Cat. No. 2030-0030).

HER2-ECD DI Fc = target: T3, HER2-ECD DI Fc (human, UniProt P04626 23-217, limits assumed); assay: as above
T3 construct: domain: domain 1; also called domain 1 of the extracellular domains of the HER2 protein; not shown: Hinge and Fc region (CH2-CH3) of human IgG1, at the C-terminus
Method: as §1

HER2-ECD-Fc [7] = target: T1, HER2-ECD-Fc; assay: ELISA on HER2-ECD-Fc; antibody at 5 × 10^-3 µg/mL
[8] = target: T4, HER3 (R&D Systems, #348-RB-050) (human, UniProt P21860 20-643); assay: ELISA on ErbB family extracellular domains, Absorbance at 450 nm; antibody concentration not given
T4 construct: extracellular domain; Bought
Text: (§2) It was investigated whether the developed five antibodies of the present disclosure specifically bind to HER2 belonging to the ErbB family proteins by ELISA.

EGFR-ECD-Fc = target: T5, EGFR-ECD-Fc (human, UniProt P00533 25-645); assay: as above
T5 construct: extracellular domain; also called extracellular domain of EGFR; not shown: Hinge and Fc region (CH2-CH3) of human IgG1; The protein was produced in the same manner as HER2-ECD-Fc
Text: as §2

[9] = target: T6, HER4 (R&D Systems, #1131-ER-050) (human, UniProt Q15303 26-651); assay: as above
T6 construct: extracellular domain; Bought
T6 sequence (looked up): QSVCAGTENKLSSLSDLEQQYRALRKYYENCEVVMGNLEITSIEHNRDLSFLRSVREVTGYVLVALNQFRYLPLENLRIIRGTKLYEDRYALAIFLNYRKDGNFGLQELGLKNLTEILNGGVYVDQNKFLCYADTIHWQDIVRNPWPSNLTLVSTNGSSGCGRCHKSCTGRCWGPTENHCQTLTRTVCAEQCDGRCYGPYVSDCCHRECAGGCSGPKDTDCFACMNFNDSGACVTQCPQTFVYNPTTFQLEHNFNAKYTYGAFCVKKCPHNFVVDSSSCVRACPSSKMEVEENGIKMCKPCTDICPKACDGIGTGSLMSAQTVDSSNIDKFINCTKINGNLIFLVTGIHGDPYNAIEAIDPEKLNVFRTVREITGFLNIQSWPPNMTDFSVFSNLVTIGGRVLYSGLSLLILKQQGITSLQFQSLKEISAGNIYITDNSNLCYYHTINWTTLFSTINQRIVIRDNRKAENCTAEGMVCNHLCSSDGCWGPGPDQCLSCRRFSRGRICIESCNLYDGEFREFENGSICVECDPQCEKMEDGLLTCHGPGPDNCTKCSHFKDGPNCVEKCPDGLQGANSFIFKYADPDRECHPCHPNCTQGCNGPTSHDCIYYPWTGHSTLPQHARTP
Text: as §2

HER2-ECD-Fc [10] = target: T1, HER2-ECD-Fc; assay: ELISA on HER2-ECD-Fc; antibody at 50 µg/mL
HER2-ECD-Fc [11] = target: T1, HER2-ECD-Fc; assay: ELISA on HER2-ECD-Fc; antibody at 5 × 10^-5 µg/mL

B1: hz8G11 (antibody, V domains shown)
VH: QVQLVQSGQEVKKPGASVKVSCKASGYSFTGYYMHWVRQAPGQGLEWIGHINPNNGGTSYNQKFKGRTTLTVDKSISTAYMELSRLRSDDTAVYYCAREEAFAYWGQGTLVTVSS
VL: DIQMTQSPSSLSASVGDRVTISCRASQDISNYLNWYQQKPGKAPKLLIYYTSRLHSGVPSRFSGSGSGTDFSLTISSLQPEDIATYYCQQGITPPWTFGGGTKVEIK
notes: Humanized antibody, detected with anti-human IgG-HRP; also called humanized 8G11 antibody
**Q.** Which absorbance (HER2-ECD-Fc [1]) does the source give for B1 here?
**A.** Its absorbance is 0.12.

**Q.** What about the absorbance (HER2-ECD-Fc [2]) of the same binder?
**A.** Its absorbance is 0.34.

**Q.** And the absorbance (HER2-ECD-Fc [3])?
**A.** The absorbance was 2.9.

**Q.** What about the absorbance (HER2-ECD-Fc [4]) of the same binder?
**A.** Its absorbance is 0.12.

**Q.** And the absorbance (HER2-ECD-Fc [5])?
**A.** The absorbance was 2.94.

**Q.** What about the absorbance (HER2-ECD-Fc [6]) of the same binder?
**A.** Its absorbance is 2.72.

**Q.** Does B1 bind (HER2-ECD DIII Fc)?
**A.** Result: no binding

**Q.** Does B1 bind (HER2-ECD DI Fc)?
**A.** Result: no binding

**Q.** And the absorbance (HER2-ECD-Fc [7])?
**A.** The absorbance was 1.67.

**Q.** Does B1 bind [8]?
**A.** Result: no binding

**Q.** Does B1 bind (EGFR-ECD-Fc)?
**A.** Result: no binding

**Q.** Does B1 bind [9]?
**A.** Result: no binding

**Q.** What about the absorbance (HER2-ECD-Fc [10]) of the same binder?
**A.** The absorbance was 2.74.

**Q.** What about the absorbance (HER2-ECD-Fc [11]) of the same binder?
**A.** Its absorbance is 0.14.
